Measurements taken from US20240417462A1 (SHANGHAI CELGEN BIO PHARMACEUTICAL, published 2024).
Where two headings read alike, the source gives them in different places.

Legend:
[1] = target: T1, recombinant human TIGIT (Human TIGIT His, Sino Biological, 10917-H08H) (human, UniProt Q495A1 22-138); assay: competition ELISA, coated TIGIT-His, CD155-Fc as competitor
T1 construct: range 1-138; bought; also called hTIGIT
T1 sequence (looked up): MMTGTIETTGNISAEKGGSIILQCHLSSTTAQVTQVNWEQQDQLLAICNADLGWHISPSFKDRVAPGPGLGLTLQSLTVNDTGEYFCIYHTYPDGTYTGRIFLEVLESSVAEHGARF
Protocol: In order to evaluate the competition between the anti-human TIGIT mouse monoclonal antibody and CD155 (Human CD155 (Fc Tag): Sino Biological, 10109-H02H) for binding to recombinant human TIGIT (Human TIGIT(His), Sino Biological, 10917-H08H), ELISA detection was performed, and the specific steps were as follows:
Primary antibody incubation: the plate was washed twice with PBS (250 μl/well), and patched dry. 6 μg/ml of CD155 was respectively diluted in a binding solution and added into a 96-well dilution plate at 60 μl/well. Then the screened hybridoma antibody was diluted with the binding solution, (the highest concentration was 30 μg/ml), and diluted to 3 times of concentration, and added into the corresponding dilution plate above at 60 μl/well. After mixing well, the sample was added to the coated 96-well ELISA plate at 100 μl/well. The plate was sealed with a sealing film and placed at 37° C. for 1.5 hours.
Secondary antibody incubation: the blocking solution was discarded, the plate was washed with 250 μl PBST for 3 times, and patched dry.

[2] = target: T1, recombinant human TIGIT (Human TIGIT …); assay: ELISA, coated human TIGIT-His
mouse TIGIT antigen = target: T2, mouse TIGIT antigen (mouse, UniProt P86176 29-148, limits assumed); assay: ELISA, coated mouse TIGIT
T2 construct: construct not described; also called murine TIGIT
T2 sequence (looked up): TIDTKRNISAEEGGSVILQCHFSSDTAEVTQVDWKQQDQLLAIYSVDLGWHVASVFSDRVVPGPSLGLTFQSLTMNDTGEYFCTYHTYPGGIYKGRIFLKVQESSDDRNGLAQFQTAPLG
Protocol: (§1) The cynomolgus monkey or mouse TIGIT antigen of was coated with the same method as above, the anti-human TIGIT mouse monoclonal antibody was diluted in gradient, and then the anti-mouse Fab secondary antibody was added (Jackson Immuno Research, 515-035-072) for TMB development. ELISA was used to detect the binding of 8 mouse monoclonal antibodies to recombinant cynomolgus monkey TIGIT.

[3] = target: T3, recombinant cynomolgus monkey TIGIT (cynomolgus monkey, UniProt A0A7N9I9V4 89-209); assay: ELISA, recombinant cynomolgus TIGIT coated, anti-mouse Fab secondary antibody, TMB, OD450/655nm
T3 construct: construct not described; also called cynomolgus TIGIT
T3 sequence (A0A7N9I9V4 entry or part of it): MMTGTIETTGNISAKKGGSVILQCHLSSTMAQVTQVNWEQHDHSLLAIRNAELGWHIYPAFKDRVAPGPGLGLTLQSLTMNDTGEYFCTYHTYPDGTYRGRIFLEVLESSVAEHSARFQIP
Protocol: as §1

[4] = target: T1, recombinant human TIGIT (Human TIGIT …); assay: BLI, antibody captured on anti-human Fc probe, TIGIT-His in solution
[5] = target: T4, full-length human TIGIT expressed on CHO-K cell membrane (CHO-K-TIGIT) (human, UniProt Q495A1 22-244); assay: flow cytometry, CHO-TIGIT cells
T4 construct: whole, on cells; also called CHO-TIGIT; membrane TIGIT
T4 sequence (looked up): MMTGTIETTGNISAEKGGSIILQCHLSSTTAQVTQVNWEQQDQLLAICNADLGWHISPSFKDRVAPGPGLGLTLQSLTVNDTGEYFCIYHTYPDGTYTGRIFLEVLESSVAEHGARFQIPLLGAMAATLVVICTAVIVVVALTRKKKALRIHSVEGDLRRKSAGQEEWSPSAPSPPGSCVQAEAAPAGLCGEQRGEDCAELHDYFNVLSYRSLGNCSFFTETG

[6] = target: T1, recombinant human TIGIT (Human TIGIT …); assay: competition ELISA on recombinant human TIGIT, CD155 as competitor
[7] = target: T1, recombinant human TIGIT (Human TIGIT …); assay: BLI, antibody captured on anti-human Fc probe, TIGIT-His in solution; remark: listed apart in the source

Binder	IC50 [1] [nM]	EC50 [2] [nM]	binding result (mouse TIGIT antigen)	binding result [3]	Kd [4] [nM]	koff [4] [s⁻¹]	kon [4] [M⁻¹ s⁻¹]	EC50 [5] [nM]	IC50 [6] [nM]	Kd [7] [nM]	koff [7] [s⁻¹]	kon [7] [M⁻¹ s⁻¹]
anti-human TIGIT mouse monoclonal antibody 7103-05 (antibody, V domains shown, also called 41D7-2-1) VH: EVQLQQSGPALVKPGASVKISCKTSEYTFTEYTMYWVKQSHGKSLEWIGGINPNNGGTRYNQKFKGKATLTVDKSSSTAYMELRSLTSEDSAVYYCARGGHYDYGFAYWGQGTLVTVSA VL: DIVMTQSHKFMSTSVGDRVSITCKASQDVKTAVAWYQQKPGQSPKVLIYSPSYRYTGVPDRFTGSGSGTDFTFTISSVQAEDLAVYYCQQHYSTPWTFGGGTKLKSK	0.169	0.0571	no binding	no binding	–	–	–	–	–	–	–	–
anti-human TIGIT mouse monoclonal antibody 7103-02 (antibody, V domains shown, also called 37C6-1-1) VH: EVQLQQSGPELVKPGASVKMSCKASGYTITSYVMHWVKQKPGQGLEWIGYINPYNDGTKYNEKFKGKATLTSDKSSSTAYMELSSLTSEDSAVYYCARWNPYYYAMDYWGQGTSVTVSS VL: EVVLTQSPAITAASLGQKVTITCSANSSARYVHWYQQKSGTSPKPWIYEISKLASGVPARFSGSGSGTSYSLTISSMGAEDAAIYYCQQWNYPLITFGAGTKLEIK	0.13	0.0987	no binding	no binding	–	–	–	–	–	–	–	–
humanized anti-human TIGIT monoclonal antibody P03488 (antibody, V domains shown) VH: QVQLVQSGAEVKKPGASVKVSCKASGYTFISYNIYWVRQAPGQGLEWIGGVNPSNGNTNFNENFKGRVTLTVDTSISTAYMELSRLRSDDTAVYYCTRGNYYGYEFAYWGQGTTVTVSS VL: DIQMTQSPSSMSASVGDRVTITCKASQHVSTAVAWYQQKPGKAPKLLIYSPSYRYTGVPSRFSGSGSGTDFTFTISSVQPEDIATYYCQQHYSTPWTFGGGTKLEIK	–	–	–	–	1.02	0.000519	511000	–	–	–	–	–
humanized anti-human TIGIT monoclonal antibody P03489 (antibody, V domains shown) VH: QVQLVQSGAEVKKPGASVKVSCKASGYTFISYNIYWVRQAPGQGLEWMGGVNPSNGNTNFNENFQGRVTMTVDTSISTAYMELSRLRSDDTAVYYCTRGNYYGYEFAYWGQGTTVTVSS VL: DIQMTQSPSSMSASVGDRVTITCKASQHVSTAVAWYQQKPGKAPKLLIYSPSYRYTGVPSRFSGSGSGTDFTFTISSVQPEDIATYYCQQHYSTPWTFGGGTKLEIK	–	–	–	–	1.19	0.000584	489000	0.761	–	–	–	–
humanized anti-human TIGIT monoclonal antibody P03477 (antibody, V domains shown) VH: EVQVVESGGGLVKPGGSLRLSCAASGFTFSTYAMSWVRQAPGKGLEWVAEISSGGSHTFYSDTVTGRFTISRDNAKNTLYLQMNSLRAEDTAVYYCARKTLDYYALDYWGQGTTVTVSS VL: DVQITQSPSSVSASVGDRVTINCRASKSISKYLAWYQQKPGKAPKLLIYSGSRLQSGVPSRFSGSGSGTDFTLTISSLQPEDFATYYCQQHNEYPWTFGGGTKLEIK	–	0.194	–	–	–	–	–	1.74	0.928	5.95	0.00291	490000
humanized anti-human TIGIT monoclonal antibody P03483 (antibody, V domains shown) VH: EVQLVESGGGLVKPGGSLRLSCAASGFTFSTYAMSWVRQAPGKGLEWVAEISSGGSHTFYADTVTGRFTISRDNAKNTLYLQMNSLRAEDTAVYYCARKTLDYYALDYWGQGTTVTVSS VL: DVQITQSPSSVSASVGDRVTINCRASKSISKYLAWYQQKPGKAPKLLIYSGSRLQSGVPSRFSGSGSGTDFTLTISSLQPEDFATYYCQQHNEYPWTFGGGTKLEIK	–	0.212	–	–	–	–	–	2.61	0.836	7.77	0.0046	592000
humanized anti-human TIGIT monoclonal antibody P03484 (antibody, V domains shown) VH: EVQLVESGGGLVKPGGSLRLSCAASGFTFSTYAMSWVRQAPGKGLEWVAEISSGGSHTFYADTVTGRFTISRDNAKNTLYLQMNSLRAEDTAVYYCARKTLDYYALDYWGQGTTVTVSS VL: DIQMTQSPSSVSASVGDRVTITCRASKSISKYLAWYQQKPGKAPKLLIYSGSRLQSGVPSRFSGSGSGTDFTLTISSLQPEDFATYYCQQHNEYPWTFGGGTKLEIK	–	0.187	–	–	–	–	–	–	1.29	9.15	0.00639	699000
humanized anti-human TIGIT monoclonal antibody P03480 (antibody, V domains shown) VH: EVQVVESGGGLVKPGGSLRLSCAASGFTFSTYAMSWVRQAPGKGLEWVAEISSGGSHTFYADTVKGRFTISRDNAKNTLYLQMNSLRAEDTAVYYCARKTLDYYALDYWGQGTTVTVSS VL: DVQITQSPSSVSASVGDRVTINCRASKSISKYLAWYQQKPGKAPKLLIYSGSRLQSGVPSRFSGSGSGTDFTLTISSLQPEDFATYYCQQHNEYPWTFGGGTKLEIK	–	0.252	–	–	–	–	–	2.19	1.24	6.67	0.00404	605000
humanized anti-human TIGIT monoclonal antibody P04664 (antibody, V domains shown) VH: EVQVVESGGGLVKPGGSLRLSCAASGFTFSTYAMSWVRQAPEQRLEWVAEISSGGSHTFYSDTVTGRFTISRDNAKNTLYLQMNSLRAEDTAVYYCARKTLDYYALDYWGQGTTVTVSS VL: DVQITQSPSSVSASVGETITINCRASKSISKYLAWYQQKPGKAPKLLIYSGSRLQSGVPSRFSGSGSGTDFTLTISSLQPEDFATYYCQQHNEYPWTFGGGTKLEIK	–	–	–	–	–	–	–	–	–	2.73	0.00391	1.43e+06
humanized anti-human TIGIT monoclonal antibody P03481 (antibody, V domains shown) VH: EVQVVESGGGLVKPGGSLRLSCAASGFTFSTYAMSWVRQAPGKGLEWVAEISSGGSHTFYADTVKGRFTISRDNAKNTLYLQMNSLRAEDTAVYYCARKTLDYYALDYWGQGTTVTVSS VL: DIQMTQSPSSVSASVGDRVTITCRASKSISKYLAWYQQKPGKAPKLLIYSGSRLQSGVPSRFSGSGSGTDFTLTISSLQPEDFATYYCQQHNEYPWTFGGGTKLEIK	–	0.122	–	–	–	–	–	2.82	0.62	10	0.00666	665000
humanized anti-human TIGIT monoclonal antibody P03476 (antibody, V domains shown) VH: EVQVVESGGGLVKPGGSLRLSCAASGFTFSTYAMSWVRQAPGKGLEWVAEISSGGSHTFYSDTVTGRFTISRDNAKNTLYLQMNSLRAEDTAVYYCARKTLDYYALDYWGQGTTVTVSS VL: DVQITQSPSYLSASVGDRVTINCRASKSISKYLAWYQQKPGKAPKLLIYSGSRLQSGIPSRFSGSGYGTDFTLTISSLQPEDFATYYCQQHNEYPWTFGGGTKLEIK	–	0.221	–	–	–	–	–	1.52	1.32	7.92	0.00483	610000
humanized anti-human TIGIT monoclonal antibody P03478 (antibody, V domains shown) VH: EVQVVESGGGLVKPGGSLRLSCAASGFTFSTYAMSWVRQAPGKGLEWVAEISSGGSHTFYSDTVTGRFTISRDNAKNTLYLQMNSLRAEDTAVYYCARKTLDYYALDYWGQGTTVTVSS VL: DIQMTQSPSSVSASVGDRVTITCRASKSISKYLAWYQQKPGKAPKLLIYSGSRLQSGVPSRFSGSGSGTDFTLTISSLQPEDFATYYCQQHNEYPWTFGGGTKLEIK	–	0.161	–	–	–	–	–	2.58	0.989	10.1	0.00714	707000
humanized anti-human TIGIT monoclonal antibody P03482 (antibody, V domains shown) VH: EVQLVESGGGLVKPGGSLRLSCAASGFTFSTYAMSWVRQAPGKGLEWVAEISSGGSHTFYADTVTGRFTISRDNAKNTLYLQMNSLRAEDTAVYYCARKTLDYYALDYWGQGTTVTVSS VL: DVQITQSPSYLSASVGDRVTINCRASKSISKYLAWYQQKPGKAPKLLIYSGSRLQSGIPSRFSGSGYGTDFTLTISSLQPEDFATYYCQQHNEYPWTFGGGTKLEIK	–	0.182	–	–	–	–	–	2.38	0.791	6.15	0.00406	661000
